The target of this assay is T1, recombinant insulin receptor ecto-domain protein rIR (R&D Systems #1444-IR) (UniProt P06213-2 28-944, limits assumed).
T1 construct: extracellular domain; Bought protein; also called soluble IR ectodomain
The assay is described as follows: competitive BMEC binding assay: scFv-Fc pre-incubated with soluble ectodomain, then cell surface binding on BMECs.

T1 sequence (P06213 other isoform, or with tags, fused parts or gaps limits assumed): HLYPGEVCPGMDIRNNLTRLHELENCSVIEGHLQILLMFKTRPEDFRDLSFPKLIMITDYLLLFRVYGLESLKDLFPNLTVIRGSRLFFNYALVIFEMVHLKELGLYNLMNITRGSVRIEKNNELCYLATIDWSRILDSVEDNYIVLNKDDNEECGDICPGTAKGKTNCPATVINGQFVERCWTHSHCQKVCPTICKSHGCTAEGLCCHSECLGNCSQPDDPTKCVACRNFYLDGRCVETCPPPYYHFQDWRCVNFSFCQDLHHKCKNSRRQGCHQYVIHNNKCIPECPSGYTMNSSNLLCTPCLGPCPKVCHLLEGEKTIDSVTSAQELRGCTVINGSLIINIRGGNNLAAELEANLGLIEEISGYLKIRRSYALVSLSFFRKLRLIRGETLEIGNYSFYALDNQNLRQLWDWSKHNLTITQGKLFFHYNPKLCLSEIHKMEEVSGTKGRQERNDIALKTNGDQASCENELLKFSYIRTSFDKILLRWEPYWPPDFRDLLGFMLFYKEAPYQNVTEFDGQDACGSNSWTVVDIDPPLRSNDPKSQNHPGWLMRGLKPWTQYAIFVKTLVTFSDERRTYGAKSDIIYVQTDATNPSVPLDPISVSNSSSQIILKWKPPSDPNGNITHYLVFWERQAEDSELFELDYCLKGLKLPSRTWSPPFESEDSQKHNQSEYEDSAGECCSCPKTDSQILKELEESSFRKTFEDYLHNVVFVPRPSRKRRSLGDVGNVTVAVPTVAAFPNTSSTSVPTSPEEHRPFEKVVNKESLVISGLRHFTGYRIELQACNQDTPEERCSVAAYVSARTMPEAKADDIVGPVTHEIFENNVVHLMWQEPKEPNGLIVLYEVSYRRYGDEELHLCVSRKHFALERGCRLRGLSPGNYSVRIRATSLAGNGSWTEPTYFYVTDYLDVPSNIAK

B1: 46.1-scFv-Fc (Fc fusion)
chain: QVQLQESGGGLAQPGGSLRLSCAASGFTFSGYWMHWVRQAPGKGLVWVSRIKGDGTDIEYADSVKGRFTISRDNAKNTLYLQMNSLRAEDTAVYYCARDLRQTHWFDSWGQGTLVTVSSGGGGSGGGGSGGGGSQSALTQDPAVSVALGQTVRITCQGDSLRSYYASWYQQKPGQAPVLVMYGENSRPSGIPDRFSGSNSGNTASLIITGAQAEDEADYYCSSRDTSGNHVLFGGGTKLTVLG
notes: scFv linked directly to rabbit IgG Fc, made in HEK293F cells; dimer; also called clone 46.1 scFv-Fc; not shown: rabbit IgG Fc region (pIRES-rabbit Fc vector)
As for B1, the binding result was “no binding”.

B2: 17-scFv-Fc (Fc fusion)
chain: QVQLLQSAGALVQPGGSLRLSCAASGFTFSSSTMHWVRQAPGKGLEWVAVVSYDGNTQYYADSVKGRFTISRDNSKNTLSLQMNNLRAEDTAVYYCAGLWGSLLGYFQHWGQGTLVTVSSGGGGSGGGGSGGGGSDIQMTQSPSFLSASVGDRVTITCRASQGVNNYLAWYQQKPGKAPKLLIYAASTLQSGVPSSFSGSGSGTEFTLTISSLQPEDFATYFCQQAHSFPPTFGGGTKLEIKR
notes: scFv linked directly to rabbit IgG Fc, made in HEK293F cells; dimer; also called clone 17 scFv-Fc; not shown: rabbit IgG Fc region (pIRES-rabbit Fc vector)
Turning to B2, the binding result is recorded as “no binding”.

The values are drawn from patent US20230331835A1 (WISCONSIN ALUMNI RESEARCH FOUNDATION, published 2023).
